Measured values published in PMC4992971, “ATP-Dependent C–F Bond Cleavage Allows the Complete Degradation of 4-Fluoroaromatics without Oxygen” (mBio, 2016).

Key:
[1] = substrate: CC(C)(COP(=O)(O)OP(=O)(O)OC[C@H]1O[C@@H](n2cnc3c(N)ncnc32)[C@H](O)[C@@H]1OP(=O)(O)O)[C@@H](O)C(=O)NCCC(=O)NCCSC(=O)c1ccc(F)cc1; test: continuous spectrophotometric assay, dithionite-reduced methyl viologen as electron donor; type: biochemical, Thauera aromatica; conditions: ATP-dependent, 30°C, enriched enzyme
[2] = substrate: CC(C)(COP(=O)(O)OP(=O)(O)OC[C@H]1O[C@@H](n2cnc3c(N)ncnc32)[C@H](O)[C@@H]1OP(=O)(O)O)[C@@H](O)C(=O)NCCC(=O)NCCSC(=O)c1ccccc1; test: as above; type: biochemical, Thauera aromatica; conditions: ATP-dependent, 30°C, enriched enzyme

B1: 4-F-BCR / class I benzoyl-CoA reductase (BCR, BcrABCD) (Thauera aromatica) (protein)
chain 1: SAKTNPEVIKESSMVKQKEMIAGNYDRLTGTKESGEKVVSTFVPGNLNELIMCFDMVNNLPETNAIQNGMRKQSGGMIMDAEKAGHSEDVCTYVKADIGMMGRGNIAPNGKPMPAPDMLLLSYTGCFTFMKWFELLRHEYKCPTVMLQIPYQGDGKITKNMRDFVVKQLKEEVIPMFEQVSGVKFDIDRLREYLKNSAKAEDDLVWVLESAKNRPSPIDAYFGGVYYIGPMFTAFRGTADAVEYYGLLRGEIEQRIREGKGPITPEGDMKEEKYRLVVEGPPNWTSFREFWKLFYDEGAVVVASSYTKVGGLYDQGFRHDPNDPLGTLADYCLGCYTNNNLPQRVELLEKYMNEYQADGLLINSIKSCNSFSAGQLLMMREIEKRTGKPAAFIETDLVDPRYFSHANVKNRLESYFQMVDQKRSGASLATA
chain 2: STADIIARCEALYEDLDFTAARQWKEADPSRKVIAYMPVYVPREIIHAAGMLPLGIMGGGDGLEVIHGDAFYQSYICRIPRSTIELGLSKRMDFVDGMLFPSICDVIRNLSGMWKLMFPGKYVRYFDVPQNYRDDVGGNYYTAELNELREGLEHLSGRKITDDALRASIKVYNENRKLVQDVYGLRSREPWKVPSADVYLLMRAGLVLPVEEHNQMLKDYLAAAVKVEAQKRDNCRVIINGSFCEQPPLNLIKSIELSGCYIVDDDYMIVHRFLRNEVSTAGDPMQNLSLAFLHESISTAAKYDDKEEDKGKYLLEQVRTNAAEGVIFAAPSFCDPALLERPMLADRCSENKVPYISFKYAENSGQMQPIREQAGTFADSIKLWS
notes: native enzyme enriched from 4-fluorobenzoate-grown cells, heterotetramer of four subunits BcrABCD, no tag; with Benzoyl-CoA reductase subunit A; Benzoyl-CoA reductase subunit D
Km [1]: 97 µM | Km [2]: 43 µM
